# Measured values reported in patent US20090099029A1, “Methods and substrates for conducting assays” (Invitrogen Corporation, priority 2005, published 2009).
# Tested on: kinases of Table 6 on Myelin Basic Protein (MBP)
# Assay: Kinase assay using MBP substrate, ProQ Diamond stain (Table 6)
# Assay type: biochemical
# Details: kinase printed on MBP-coated slide; 20 uM ATP, 30° C.; ProQ Diamond Microarray Stain; graded Strong/Weak/Negative
# Summary of the method: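 Reactions ran at 30° C. with 20 uM ATP, 4 mM MgCl2 and 5% DMSO in HEPES pH 7.5, inhibitor added or omitted. Kinases had been arrayed onto slide-bound dephosphorylated bovine MBP; phospho-signal read after ProQ Diamond staining.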
row,Molecule,MBP Kinase Activity
1,"FES (protein, left off: small tags and cut ends) MGFSSELCSPQGHGVLQQMQEAELRLLEGMRKWMAQRVKSDREYAGLLHHMSLQDSGGQSRAISPDSPISQSWAEITSQTEGLSRLLRQHAEDLNSGPLSKLSLLIRERQQLRKTYSEQWQQLQQELTKTHSQDIEKLKSQYRALARDSAQAKRKYQEASKDKDRDKAKDKYVRSLWKLFAHHNRYVLGVRAAQLHHQHHHQLLLPGLLRSLQDLHEEMACILKEILQEYLEISSLVQDEVVAIHREMAAAAARIQPEAEYQGFLRQYGSAPDVPPCVTFDESLLEEGEPLEPGELQLNELTVESVQHTLTSVTDELAVATEMVFRRQEMVTQLQQELRNEEENTHPRERVQLLGKRQVLQEALQGLQVALCSQAKLQAQQELLQTKLEHLGPGEPPPVLLLQDDRHSTSSSEQEREGGRTPTLEILKSHISGIFRPKFSLPPPLQLIPEVQKPLHEQLWYHGAIPRAEVAELLVHSGDFLVRESQGKQEYVLSVLWDGLPRHFIIQSLDNLYRLEGEGFPSIPLLIDHLLSTQQPLTKKSGVVLHRAVPKDKWVLNHEDLVLGEQIGRGNFGEVFSGRLRADNTLVAVKSCRETLPPDLKAKFLQEARILKQYSHPNIVRLIGVCTQKQPIYIVMELVQGGDFLTFLRTEGARLRVKTLLQMVGDAAAGMEYLESKCCIHRDLAARNCLVTEKNVLKISDFGMSREEADGVYAASGGLRQVPVKWTAPEALNYGRYSSESDVWSFGILLWETFSLGASPYPNLSNQQTREFVEKGGRLPCPELCPDAVFRLMEQCWAYEPGQRPSFSTIYQELQSIRKRHR",Negative
2,"JAK3 (protein, left off: a dimerising Fc or GST) ISSDYELLSDPTPGALAPRDGLWNGAQLYACQDPTIFEERHLKYISQLGKGNFGSVELCRYDPLGDNTGALVAVKQLQHSGPDQQRDFQREIQILKALHSDFIVKYRGVSYGPGRQSLRLVMEYLPSGCLRDFLQRHRARLDASRLLLYSSQICKGMEYLGSRRCVHRDLAARNILVESEAHVKIADFGLAKLLPLDKDYYVVREPGQSPIFWYAPESLSDNIFSRQSDVWSFGVVLYELFTYCDKSCSPSAEFLRMMGCERDVPALCRLLELLEEGQRLPAPPACPAEVHELMKLCWAPSPQDRPSFSALGPQLDMLWSGSRGCETHAFTAHPEGKHHSLSFS",Strong
3,"ABL2(ARG) (protein, left off: small tags and cut ends) MGQQVGRVGEAPGLQQPQPRGIRGSSAARPSGRRRDPAGRTTETGFNIFTQHDHFASCVEDGFEGDKTGGSSPEALHRPYGCDVEPQALNEAIRWSSKENLLGATESDPNLFVALYDFVASGDNTLSITKGEKLRVLGYNQNGEWSEVRSKNGQGWVPSNYITPVNSLEKHSWYHGPVSRSAAEYLLSSLINGSFLVRESESSPGQLSISLRYEGRVYHYRINTTADGKVYVTAESRFSTLAELVHHHSTVADGLVTTLHYPAPKCNKPTVYGVSPIHDKWEMERTDITMKHKLGGGQYGEVYVGVWKKYSLTVAVKTLKEDTMEVEEFLKEAAVMKEIKHPNLVQLLGVCTLEPPFYIVTEYMPYGNLLDYLRECNREEVTAVVLLYMATQISSAMEYLEKKNFIHRDLAARNCLVGENHVVKVADFGLSRLMTGDTYTAHAGAKFPIKWTAPESLAYNTFSIKSDVWAFGVLLWEIATYGMSPYPGIDLSQVYDLLEKGYRMEQPEGCPPKVYELMRACWKWSPADRPSFAETHQAFETMFHDSSISEEVAEELGRAASSSSVVPYLPRLPILPSKTRTLKKQVENKENIEGAQDATENSASSLAPGFIRGAQASSGSPALPRKQRDKSPSSLLEDAKETCFTRDRKGGFFSSFMKKRNAPTPPKRSSSFREMENQPHKKYELTGNFSSVASLQHADGFSFTPAQQEANLVPPKCYGGSFAQRNLCNDDGGGGGGSGTAGGGWSGITGFFTPRLIKKTLGLRAGKPTASDDTSKPFPRSNSTSSMSSGLPEQDRMAMTLPRNCQRSKLQLERTVSTSSQPEENVDRANDMLPKKSEESAAPSRERPKAKLLPRGATALPLRTPSGDLAITEKDPPGVGVAGVAAAPKGKEKNGGARLGMAGVPEDGEQPGWPSPAKAAPVLPTTHNHKVPVLISPTLKHTPADVQLIGTDSQGNKFKLLSEHQVTSSGDKDRPRRVKPKCAPPPPPVMRLLQHPSICSDPTEEPTALTAGQSTSETQEGGKKAALGAVPISGKAGRPVMPPPQVPLPTSSISPAKMANGTAGTKVALRKTKQAAEKISADKISKEALLECADLLSSALTEPVPNSQLVDTGHQLLDYCSGYVDCIPQTRNKFAFREAVSKLELSLQELQVSSAAAGVPGTNPVLNNLLSCVQEISDVVQR",Weak
4,"FER (protein, left off: a dimerising Fc or GST) KSGVVLLNPIPKDKKWILSHEDVILGELLGKGNFGEVYKGTLKDKTSVAVKTCKEDLPQELKIKFLQEAKILKQYDHPNIVKLIGVCTQRQPVYIIMELVSGGDFLTFLRRKKDELKLKQLVKFSLDAAAGMLYLESKNCIHRDLAARNCLVGENNVLKISDFGMSRQEDGGVYSSSGLKQIPIKWTAPEALNYGRYSSESDVWSFGILLWETFSLGVCPYPGMTNQQAREQVERGYRMSAPQHCPEDISKIMMKCWDYKPENRPKFSELQKELTIIKRKLT",Negative
5,"BMX (protein, left off: small tags and cut ends) MDTKSILEELLLKRSQQKKKMSPNNYKERLFVLTKTNLSYYEYDKMKRGSRKGSIEIKKIRCVEKVNLEEQTPVERQYPFQIVYKDGLLYVYASNEESRSQWLKALQKEIRGNPHLLVKYHSGFFVDGKFLCCQQSCKAAPGCTLWEAYANLHTAVNEEKHRVPTFPDRVLKIPRAVPVLKMDAPSSSTTLAQYDNESKKNYGSQPPSSSTSLAQYDSNSKKIYGSQPNFNMQYIPREDFPDWWQVRKLKSSSSSEDVASSNQKERNVNHTTSKISWEFPESSSSEEEENLDDYDWFAGNISRSQSEQLLRQKGKEGAFMVRNSSQVGMYTVSLFSKAVNDKKGTVKHYHVHTNAENKLYLAENYCFDSIPKLIHYHQHNSAGMITRLRHPVSTKANKVPDSVSLGNGIWELKREEITLLKELGSGQFGVVQLGKWKGQYDVAVKMIKEGSMSEDEFFQEAQTMMKLSHPKLVKFYGVCSKEYPIYIVTEYISNGCLLNYLRSHGKGLEPSQLLEMCYDVCEGMAFLESHQFIHRDLAARNCLVDRDLCVKVSDFGMTRYVLDDQYVSSVGTKFPVKWSAPEVFHYFKYSSKSDVWAFGILMWEVFSLGKQPYDLYDNSQVVLKVSQGHRLYRPHLASDTIYQIMYSCWHELPEKRPTFQQLLSSIEPLREKDKH",Strong
6,"BTK (protein, left off: small tags and cut ends) MAAVILESIFLKRSQQKKKTSPLNFKKRLFLLTVHKLSYYEYDFERGRRGSKKGSIDVEKITCVETVVPEKNPPPERQIPRRGEESSEMEQISIIERFPYPFQVVYDEGPLYVFSPTEELRKRWIHQLKNVIRYNSDLVQKYHPCFWIDGQYLCCSQTAKNAMGCQILENRNGSLKPGSSHRKTKKPLPPTPEEDQILKKPLPPEPAAAPVSTSELKKVVALYDYMPMNANDLQLRKGDEYFILEESNLPWWRARDKNGQEGYIPSNYVTEAEDSIEMYEWYSKHMTRSQAEQLLKQEGKEGGFIVRDSSKAGKYTVSVFAKSTGDPQGVIRHYVVCSTPQSQYYLAEKHLFSTIPELINYHQHNSAGLISRLKYPVSQQNKNAPSTAGLGYGSWEIDPKDLTFLKELGTGQFGVVKYGKWRGQYDVAIKMIKEGSMSEDEFIEEAKVMMNLSHEKLVQLYGVCTKQRPIFIITEYMANGCLLNYLREMRHRFQTQQLLEMCKDVCEAMEYLESKQFLHRDLAARNCLVNDQGVVKVSDFGLSRYVLDDEYTSSVGSKFPVRWSPPEVLMYSKFSSKSDIWAFGVLMWEIYSLGKMPYERFTNSETAEHIAQGLRLYRPHLASEKVYTIMYSCWHEKADERPTFKILLSNILDVMDEES",Strong
7,"MATK(HYL) (protein, left off: small tags and cut ends) MQGHFPAERREGRPRRGTRGQQQLLVSPRFLRAWHPPPVSARMPTRRWAPGTQCITKCEHTRPKPGELAFRKGDVVTILEACENKSWYRVKHHTSGQEGLLAAGALREREALSADPKLSLMPWFHGKISGQEAVQQLQPPEDGLFLVRESARHPGDYVLCVSFGRDVIHYRVLHRDGHLTIDEAVFFCNLMDMVEHYSKDKGAICTKLVRPKRKHGTKSAEEELARAGWLLNLQHLTLGAQIGEGEFGAVLQGEYLGQKVAVKNIKCDVTAQAFLDETAVMTKMQHENLVRLLGVILHQGLYIVMEHVSKGNLVNFLRTRGRALVNTAQLLQFSLHVAEGMEYLESKKLVHRDLAARNILVSEDLVAKVSDFGLAKAERKGLDSSRLPVKWTAPEALKHGKFTSKSDVWSFGVLLWEVFSYGRAPYPKMSLKEVSEAVEKGYRMEPPEGCPGPVHVLMSSCWEAEPARRPPFRKLAEKLARELRSAGAPASVSGQDADGSTSPRSQEP",Negative
8,"CSK (protein, left off: small tags and cut ends) MSAIQAAWPSGTECIAKYNFHGTAEQDLPFCKGDVLTIVAVTKDPNWYKAKNKVGREGIIPANYVQKREGVKAGTKLSLMPWFHGKITREQAERLLYPPETGLFLVRESTNYPGDYTLCVSCDGKVEHYRIMYHASKLSIDEEVYFENLMQLVEHYTSDADGLCTRLIKPKVMEGTVAAQDEFYRSGWALNMKELKLLQTIGKGEFGDVMLGDYRGNKVAVKCIKNDATAQAFLAEASVMTQLRHSNLVQLLGVIVEEKGGLYIVTEYMAKGSLVDYLRSRGRSVLGGDCLLKFSLDVCEAMEYLEGNNFVHRDLAARNVLVSEDNVAKVSDFGLTKEASSTQDTGKLPVKWTAPEALREKKFSTKSDVWSFGILLWEIYSFGRVPYPRIPLKDVVPRVEKGYKMDAPDGCPPAVYEVMKNCWHLDAAMRPSFLQLREQLEHIKTHELHL",Negative
